From article PMC2148147 (The Journal of Cell Biology, 1998)

T1: Cdc3p (S. cerevisiae, UniProt P32457 1-520)
T1 sequence: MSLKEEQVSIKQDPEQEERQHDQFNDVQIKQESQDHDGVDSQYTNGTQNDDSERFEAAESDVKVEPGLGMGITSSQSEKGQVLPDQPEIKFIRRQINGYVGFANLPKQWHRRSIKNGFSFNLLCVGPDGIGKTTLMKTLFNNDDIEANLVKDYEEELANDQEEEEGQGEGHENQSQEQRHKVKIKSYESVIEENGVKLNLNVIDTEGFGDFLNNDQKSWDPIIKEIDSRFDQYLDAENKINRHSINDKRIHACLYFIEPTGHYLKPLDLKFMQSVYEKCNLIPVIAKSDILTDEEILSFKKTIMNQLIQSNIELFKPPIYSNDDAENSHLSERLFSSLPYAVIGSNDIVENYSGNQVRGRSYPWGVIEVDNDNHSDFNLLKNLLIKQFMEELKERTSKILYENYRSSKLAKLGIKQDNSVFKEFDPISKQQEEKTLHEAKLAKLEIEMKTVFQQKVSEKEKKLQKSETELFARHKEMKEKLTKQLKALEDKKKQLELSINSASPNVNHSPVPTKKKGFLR

B1: Cdc10p (natural protein)
chain: MDPLSSVQPASYVGFDTITNQIEHRLLKKGFQFNIMVVGQSGLGKSTLINTLFASHLIDSATGDDISALPVTKTTEMKISTHTLVEDRVRLNINVIDTPGFGDFIDNSKAWEPIVKYIKEQHSQYLRKELTAQRERFITDTRVHAILYFLQPNGKELSRLDVEALKRLTEIANVIPVIGKSDTLTLDERTEFRELIQNEFEKYNFKIYPYDSEELTDEELELNRSVRSIIPFAVVGSENEIEINGETFRGRKTRWSAINVEDINQCDFVYLREFLIRTHLQDLIETTSYIHYEGFRARQLIALKENANSRSSAHMSSNAIQR
B2: Cdc11p (natural protein)
chain: MSGIIDASSALRKRKHLKRGITFTVMIVGQSGSGRSTFINTLCGQQVVDTSTTILLPTDTSTEIDLQLREETVELEDDEGVKIQLNIIDTPGFGDSLDNSPSFEIISDYIRHQYDEILLEESRVRRNPRFKDGRVHCCLYLINPTGHGLKEIDVEFIRQLGSLVNIIPVISKSDSLTRDELKLNKKLIMEDIDRWNLPIYNFPFDEDEISDEDYETNMYLRTLLPFAIIGSNEVYEMGGDVGTIRGRKYPWGILDVEDSSISDFVILRNALLISHLHDLKNYTHEILYERYRTEALSGESVAAESIRPNLTKLNGSSSSSTTTRRNTNPFKQSNNINNDVLNPASDMHGQSTGENNETYMTREEQIRLEEERLKAFEERVQQELLLKRQELLQREKELREIEARLEKEAKIKQEE
B3: Cdc12p (natural protein)
chain: MSAATATAAPVPPPVGISNLPNQRYKIVNEEGGTFTVMLCGESGLGKTTFINTLFQTVLKRADGQQHRQEPIRKTVEIDITRALLEEKHFELRVNVIDTPGFGDNVNNNKAWQPLVDFIDDQHDSYMRQEQQPYRTKKFDLRVHAVLYFIRPTGHGLKPIDIETMKRLSTRANLIPVIAKADTLTAQELQQFKSRIRQVIEAQEIRIFTPPLDADSKEDAKSGSNPDSAAVEHARQLIEAMPFAIVGSEKKFDNGQGTQVVARKYPWGLVEIENDSHCDFRKLRALLLRTYLLDLISTTQEMHYETYRRLRLEGHENTGEGNEDFTLPAIAPARKLSHNPRYKEEENALKKYFTDQVKAEEQRFRQWEQNIVNERIRLNGDLEEIQGKVKKLEEQVKSLQVKKSHLK

Target: T1, Cdc3p
Assay: SEC + other: sucrose gradient sedimentation

stoichiometry N | Binder
~1 Cdc10p per Cdc3p (2:2) | B1
~0.5 Cdc11p per Cdc3p (1:2) | B2
~1 Cdc12p per Cdc3p (2:2) | B3
